Test results as given in patent US9724388B2, “FGF-18 compound dosing regimen” (MERCK PATENT GMBH, priority 2014, dated 2017).
“Also recorded” adds a separate entry of the source. Read-outs that look alike come from different tables or passages of the source.

Key:
[1] = tested on: rat model of OA (ACLT with tMx); test: ACLT+tMx rat OA model, intracycle dosing frequencies of sprifermin; assay type: in vivo
Experimental: The goal of this study was to evaluate the effect of different intracycle dosing frequencies of the same total dosage (3×1 μg) of sprifermin on cartilage volume in a rat model of OA. The anterior cruciate ligament transection (ACLT) with resection of the medial meniscus (tMx) was performed as disclosed in example 1. Joints from male Lister Hooded Rats (200-260 g, Charles River) were used in this study. Animals were euthanized 18 weeks post-surgery.
The changes in the joint are related to clinical assessments in OA (cartilage loss, osteophytes, subchondral sclerosis). One μg sprifermin in saline was injected three times either weekly, every 2nd, every 3rd, every 4th or every 5th week and compared to appropriate vehicle groups. Body weight, joint diameters and clinical health scores were investigated weekly.

[2] = tested on: full-thickness defect in the articular cartilage of the trochlear groove; assay type: in vivo, rabbit; settings: for ICRS gross cartilage score: mean +/- SE
Description: 60 adult male, naïve, New Zealand White rabbits were used for this study. Animals were approximately 3-4 months of age. Rabbits underwent for creation of the cartilage defect in the right knee. A 2 mm by 6 mm full-thickness defect was made in the articular cartilage of the trochlear groove. The microfracture was created using 18 gauge needles; two 3 mm deep microfractures were made through the subchondral bone at the base of the defect, one proximally and one distally. Each microfracture hole was approximately 1.5 mm in diameter and the holes separated by 2 mm. The experiment consisted of the following six treatment groups, with 10 animals in each group for a total of 60 rabbits (Table 2). Rabbits in Groups 3, 4, 5 and 6 were treated with intra-articular rhFGF-18 in either one cycle of three weekly injections of 100 μg of rhFGF-18 (Group 3 and 5) or one cycle of three monthly injections 100 μg of rhFGF-18 (Group 4 and 6). All animals were euthanized and necropsied 6 months after surgery. [table]

[3] = Group 4: no microfracture, 100 μg monthly x3
[4] = Group 6: microfracture, 100 μg monthly x3
[5] = microfracture, monthly for three months, non-significant
[6] = microfracture, monthly for three months, significant
[7] = microfracture, weekly for three weeks, significant
[8] = no microfracture, monthly for three months, non-significant
[9] = no microfracture, monthly for three months, significant

B1: trFGF-18: recombinant truncated form of human FGF-18 (170 amino acids, SEQ ID NO: 2), produced in E. coli (protein)
chain: MEENVDFRIHVENQTRARDDVSRKQLRLYQLYSRTSGKHIQVLGRRISARGEDGDKYAQLLVETDTFGSQVRIKGKETEFYLCMNRKGKLVGKPDGTSKECVFIEKVLENNYTALMSAKYSGWYVGFTKKGRPRKGPKTRENQQDVHFMKRYPKGQPELQKPFKYTTVTK
modifications: Recombinant truncated FGF-18(trFGF-18)
- cartilage volume on medial tibia (FIG. 9) ([1]; 1 μg/joint once every 3rd week, three injections, listed as rhFGF-18): pharmacologically meaningful and statistically significant difference over saline; also recorded: most beneficial structural outcome
- body weight gain ([1]; 3 x 1 μg intra-articular injections): no influence
- cartilage denudation (stereology) ([1]; 3 x 1 μg/joint): prevented more or less complete cartilage denudation
- cartilage volume ([1]; all groups treated with rhFGF-18): higher cartilage volume values compared to placebo
- AUC of joint diameters ([1]; injected every fifth week): the same as with saline injections
- joint diameters, differences between regimens ([1]; injections every 2nd, 3rd or 4th week): No significant differences
- joint diameters (AUC, FIG. 8) ([1]; injections in week 3, 4 and 5 vs injections in week 3, 8 and 13): significantly higher
- ICRS cartilage score [2, 3]: 2.1+/−0.3
- animals with intercondylar groove filled with cartilage (nearly normal to slightly roughened or granular) [2, 3]: 6/9
- ICRS gross cartilage score ([2]; Group 5: microfracture, 100 μg weekly x3): 1.9+/−0.3
- animals with groove 50% filled up to nearly completely filled with granular to coarsely granular cartilage [2, 4]: 7/10
- animals with intercondylar groove filled with cartilage [2, 4]: 3/10
- ICRS gross cartilage score [2, 4]: 2.4+/−0.2
- decrease in total width of the groove lesion [2, 5]: 19%
- decrease in width of the lesion with no viable cartilage [2, 5]: 69%
- increase in central MFC thickness [2, 6]: 106%
- increase in summed scores [2, 6]: 76%
- increases (toward normal) in all scored parameters and defect fill percent [2, 6]: 61-97%
- increase in total width of the groove lesion ([2]; microfracture, weekly for three weeks): 5%
- decrease in width of the lesion with no viable cartilage ([2]; microfracture, weekly for three weeks, non-significant): 59%
- increase in central MFC thickness [2, 7]: 112%
- increase in summed scores [2, 7]: 53%
- increases (toward normal) in all scored parameters and defect fill percent [2, 7]: 44-69%
- degeneration in sections ([2]; no microfracture, monthly for three months, all sections, generally focal): minimal to severe
- increase in other scores [2, 8]: 20-23%
- increase in total width of the groove lesion [2, 8]: 36%
- decrease in width of the lesion with no viable cartilage [2, 9]: 94%
- increase in central MFC thickness [2, 9]: 120%
- increase in defect fill percentage [2, 9]: 48%
- increase in the defect fill score [2, 9]: 49%
- sections with cartilage hypertrophy ([2]; rabbit, in vivo): All sections
